Consider three molecules from article PMC5602324.

Like-named read-outs stand apart in the source and are kept apart here.

In assay [1] the target is microtubule (tubulin) (Sus scrofa) (UniProt Q2XVP4). The settings on record: cited from earlier work.
Assay [2] has the same target. The conditions noted are these: cited from earlier work. The source holds these as a separate data set.
Assay [3] shares this target. The settings on record: cited from earlier work. This is another data set of the same source.
In assay [4] the target is paclitaxel-stabilised microtubules (polymerised αβ-tubulin) (bovine) (UniProt Q6B856).
For assay [5] the target is unchanged. Put plainly: co-sedimentation; ADP state (1 mM ADP); 2.5 μM MKLP2-MD with 0–10 μM polymerised tubulin (paclitaxel-stabilised MTs), BRB80 plus 25 mM NaCl, 25°C, 100,000 × g; quadratic fit assuming 1:1 motor:tubulin dimer; apparent.
The target is the same in assay [6]. Put plainly: co-sedimentation; AMPPNP state (1 mM nucleotide); 2.5 μM MKLP2-MD with 0–10 μM polymerised tubulin (paclitaxel-stabilised MTs), BRB80 plus 25 mM NaCl, 25°C, 100,000 × g; quadratic fit assuming 1:1 motor:tubulin dimer; apparent.
For assay [7] the target is unchanged. Put plainly: co-sedimentation; ADP.AlFx state (1 mM nucleotide); 2.5 μM MKLP2-MD with 0–10 μM polymerised tubulin (paclitaxel-stabilised MTs), BRB80 plus 25 mM NaCl, 25°C, 100,000 × g; quadratic fit assuming 1:1 motor:tubulin dimer; apparent.
Assay [8] shares this target. In words: co-sedimentation; no nucleotide (NN, apyrase-treated); 2.5 μM MKLP2-MD with 0–10 μM polymerised tubulin (paclitaxel-stabilised MTs), BRB80 plus 25 mM NaCl, 25°C, 100,000 × g; quadratic fit assuming 1:1 motor:tubulin dimer; apparent.
Assay [9] has the same target. This is another data set of the same source.

Regarding “Kin3 (Kif1a) motor domain (from UniProt P33173)”, the results for the Kd in assay [1], in assay [2] and in assay [3] were 6.8 nM, 5.9 nM and 4.2 nM, respectively.

B1: MKLP2 motor domain, construct 25–520 (domain or fragment)
chain: ESTAADLRSVVRKDLLSDCSVISASLEDKQALLEDTSEKVKVYLRIRPFLTSELDRQEDQGCVCIENTETLVLQAPKDSFALKSNERGVGQATHKFTFSQIFGPEVGQVAFFNLTMKEMVKDVLKGQNWLIYTYGVTNSGKTYTIQGTSKDAGILPQSLALIFNSLQGQLHPTPDLKPLLSNEVIWLDSKQIRQEEMKKLSLLIGGLQEEELSTSVKKRVHTESRIGASNSFDSGVAGLSSTSQFTSSSQLDETSQLWAQPDTVPVSVPADIRFSVWISFFEIYNELLYDLLEPPSHQHKRQTLRLCEDQNGNPYVKDLNWIHVRDVEEAWKLLKVGRKNQSFASTHMNQQSSRSHSIFSIRILHLQGEGDIVPKISELSLCDLAGSERCKHQKSGERLKEAGNINTSLHTLGRCIAALRQNQQNRSKQNLIPFRDSKLTRVFQGFFTGRGRSCMIVNVNPCASTYDETLHAAKFSALASQLVHAPPVHLGIPSLH
In assay [4], B1 yielded an MT-stimulated steady-state ATPase, K0.5,MT (Michaelis Menten fit of velocity against [tubulin]) of 1.07 µM. Further, the Kd in assay [5] stood at 363 nM; in [6], 43 nM; in [7], 355 nM; in [8], 43 nM.

B2: MKLP2 motor domain, construct 1–520 (domain or fragment)
chain: MSHRILSPPAGLLSDEDVVDSPILESTAADLRSVVRKDLLSDCSVISASLEDKQALLEDTSEKVKVYLRIRPFLTSELDRQEDQGCVCIENTETLVLQAPKDSFALKSNERGVGQATHKFTFSQIFGPEVGQVAFFNLTMKEMVKDVLKGQNWLIYTYGVTNSGKTYTIQGTSKDAGILPQSLALIFNSLQGQLHPTPDLKPLLSNEVIWLDSKQIRQEEMKKLSLLIGGLQEEELSTSVKKRVHTESRIGASNSFDSGVAGLSSTSQFTSSSQLDETSQLWAQPDTVPVSVPADIRFSVWISFFEIYNELLYDLLEPPSHQHKRQTLRLCEDQNGNPYVKDLNWIHVRDVEEAWKLLKVGRKNQSFASTHMNQQSSRSHSIFSIRILHLQGEGDIVPKISELSLCDLAGSERCKHQKSGERLKEAGNINTSLHTLGRCIAALRQNQQNRSKQNLIPFRDSKLTRVFQGFFTGRGRSCMIVNVNPCASTYDETLHAAKFSALASQLVHAPPVHLGIPSLH
With B2, in assay [9], the MT-stimulated steady-state ATPase, K0.5,MT (Michaelis Menten fit of velocity against [tubulin]) is 0.93 µM.
